From IntAct's records for PubMed 19549854

B1: [PIN+] prion protein RNQ1 (Saccharomyces cerevisiae), P25367 (parent)
chain: MDTDKLISEAESHFSQGNHAEAVAKLTSAAQSNPNDEQMSTIESLIQKIAGYVMDNRSGGSDASQDRAAGGGSSFMNTLMADSKGSSQTQLGKLALLATVMTHSSNKGSSNRGFDVGTVMSMLSGSGGGSQSMGASGLAALASQFFKSGNNSQGQGQGQGQGQGQGQGQGQGSFTALASLASSFMNSNNNNQQGQNQSSGGSSFGALASMASSFMHSNNNQNSNNSQQGYNQSYQNGNQNSQGYNNQQYQGGNGGYQQQQGQSGGAFSSLASMAQSYLGGGQTQSNQQQYNQQGQNNQQQYQQQGQNYQHQQQGQQQQQGHSSSFSALASMASSYLGNNSNSNSSYGGQQQANEYGRPQQNGQQQSNEYGRPQYGGNQNSNGQHESFNFSGNFSQQNNNGNQNRY

Variants of: B1
Conditions: with mas5_yeast YDJ1, P25491
Sequence of mas5_yeast YDJ1, P25491 (P25491 whole entry): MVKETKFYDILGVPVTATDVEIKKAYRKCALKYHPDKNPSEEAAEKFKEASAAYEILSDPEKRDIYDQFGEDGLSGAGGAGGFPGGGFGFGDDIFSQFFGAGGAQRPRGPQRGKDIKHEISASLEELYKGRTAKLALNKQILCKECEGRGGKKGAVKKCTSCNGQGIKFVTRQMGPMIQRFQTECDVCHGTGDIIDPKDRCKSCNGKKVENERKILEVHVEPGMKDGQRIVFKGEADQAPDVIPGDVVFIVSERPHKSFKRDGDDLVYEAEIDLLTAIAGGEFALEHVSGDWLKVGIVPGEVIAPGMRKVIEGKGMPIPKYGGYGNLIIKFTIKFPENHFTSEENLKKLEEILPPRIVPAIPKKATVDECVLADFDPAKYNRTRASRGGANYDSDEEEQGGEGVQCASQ

Row | Variant | effect of a mutation on the interaction
1 | N253Y | disrupting interaction
2 | Q257Y | disrupting interaction
